Key:
[1] = molecular target: T1, LAG-3 (axis label "%LAG-3 OCCUPANCY", DONOR 1 to DONOR 4) (human, UniProt P18627); assay: receptor occupancy assay on SEB-stimulated human donor PBMCs (4 donors)
T1 construct: full-length, on the cell surface; also called LAG-3 on SEB-stimulated human donor PBMCs
T1 sequence (receptor, looked up): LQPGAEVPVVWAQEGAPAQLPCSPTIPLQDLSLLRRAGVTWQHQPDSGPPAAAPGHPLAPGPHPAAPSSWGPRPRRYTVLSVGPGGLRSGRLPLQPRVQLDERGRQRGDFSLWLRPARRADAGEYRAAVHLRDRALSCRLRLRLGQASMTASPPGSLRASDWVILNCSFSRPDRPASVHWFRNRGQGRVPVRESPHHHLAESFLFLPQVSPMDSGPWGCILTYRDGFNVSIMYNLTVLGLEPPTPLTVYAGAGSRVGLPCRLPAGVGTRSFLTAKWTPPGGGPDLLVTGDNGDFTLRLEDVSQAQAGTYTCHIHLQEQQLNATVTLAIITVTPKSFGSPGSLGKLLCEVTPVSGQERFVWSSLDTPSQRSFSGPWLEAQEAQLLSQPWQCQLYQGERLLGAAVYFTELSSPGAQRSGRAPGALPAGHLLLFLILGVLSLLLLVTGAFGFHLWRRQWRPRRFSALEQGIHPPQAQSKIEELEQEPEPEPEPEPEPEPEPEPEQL

[2] = molecular target: T2, cynomolgus monkey LAG-3 expressed on the surface of CHO cells (cynomolgus monkey); assay: binding to LAG-3 expressing CHO cells
T2 construct: whole, on cells; also called Cyno LAG-3; LAG-3 expressing CHO cells

[3] = molecular target: T3, human LAG-3 expressed on the surface of CHO cells (human, UniProt P18627 23-525); assay: binding to LAG-3 expressing CHO cells
T3 construct: whole, on cells; also called LAG-3 expressing CHO cells; cell-surface-expressed LAG-3
T3 sequence (looked up): T1 sequence (receptor, looked up)

[4] = molecular target: T4, recombinant soluble human LAG-3 (human, UniProt P18627 23-450, limits assumed); assay: SPR, recombinant soluble LAG-3
T4 construct: also called soluble LAG-3
T4 sequence (looked up): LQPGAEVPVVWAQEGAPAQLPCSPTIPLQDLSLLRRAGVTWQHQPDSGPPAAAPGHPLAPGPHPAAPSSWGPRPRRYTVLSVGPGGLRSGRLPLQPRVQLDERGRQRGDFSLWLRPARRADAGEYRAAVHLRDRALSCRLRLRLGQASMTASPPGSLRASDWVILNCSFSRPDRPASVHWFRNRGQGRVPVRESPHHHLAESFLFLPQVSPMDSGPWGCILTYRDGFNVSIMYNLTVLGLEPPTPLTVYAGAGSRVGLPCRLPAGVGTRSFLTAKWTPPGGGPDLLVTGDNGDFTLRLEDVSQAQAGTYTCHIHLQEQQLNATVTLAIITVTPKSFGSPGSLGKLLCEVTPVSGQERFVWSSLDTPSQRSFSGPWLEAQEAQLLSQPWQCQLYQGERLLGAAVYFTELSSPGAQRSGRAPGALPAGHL

[5] = molecular target: T5, recombinant soluble cynomolgus monkey LAG-3 (cynomolgus monkey); assay: SPR, recombinant soluble LAG-3
T5 construct: also called Cyno LAG-3; soluble LAG-3

[6] = molecular target: DyLight 650 (DyL650)-labeled LAG-3 fusion protein; assay: flow cytometry competition: antibody titrated against binding of the DyL650-labeled LAG-3 fusion protein to MHC class II on Daudi cells; readout MFI (Dyl650)
[7] = molecular target: T6, LAG-3 expressed on Jurkat cells (Homo sapiens (Human), UniProt P18627 23-525); assay: cell-based or functional assay
T6 sequence: T1 sequence (receptor, looked up)

B1: anti-LAG-3 antibody agent TSR-033 (antibody, human IgG4 S228P, kappa, V domains shown)
VH: EVQLVQSGAEVKKPGATVKISCKASGFSIKDDYIHWVQQAPGKGLEWMGWIDAMNDDSQYSSKFQGRVTITVDTSTNTAYMKLSSLRSEDTAVYYCTYAFGGYWGQGTTVTVSS
VL: DIVMTQTPLSLSVTPGQPASISCRSSQSLVHSDSNTYLHWYLQKPGQSPQLLIYLVSNRFSGVPDRFSGSGSGTDFTLKISRVEAEDVGVYFCGQSTHVPYAFGGGTKVEIKR
modifications: N-glycosylation at N291 of the heavy chain
notes: also called exemplary anti-LAG-3 antibody agent; exemplary anti-LAG-3 antibody
EC50 (read off the curve) [1]: ~0.06 µg/mL
EC50 [2]: 2.6 nM
EC50 [3]: 0.8 nM
Kd [4]: 0.95 nM
koff [4]: 0.00013 s⁻¹
Kd [5]: 2 nM
koff [5]: 0.00026 s⁻¹
IC50 [6]: 3.4 nM
EC50 (read off the curve); NFAT-luciferase reporter signal (RLU) [7]: ~70 nM

Source: patent US20220135670A1 (TESARO, published 2022)
